Measured values from US11584938B2, “Plant EPSPS mutant containing L195P and S247G mutations and encoding gene and use thereof” (GEVOTO LLC, priority 2017, dated 2023).

B1: G3: soybean EPSPS mutant, SEQ ID NO: 8, mutations L212(195)P and P114(101)S (protein)
chain: MAAAEKPSTAPEIVLEPIKDISGTITLPGSKSLSNRILLLAALSEGTTVVDNLLYSEDIHYMLGALRTLGLRVEDDQTTKQAIVEGCGGLFPTIKESKDEINLFLGNAGTAMRSLTAAVVAAGGNASYVLDGVPRMRERPIGDLVAGLKQLGADVDCFLGTNCPPVRVNGKGGLPGGKVKLSGSVSSQYLTALLMAAPLALGDVEIEIVDKPISVPYVEMTLKLMERFGVSVEHSGDWDKFLVHGGQKYKSPGNAFVEGDASSASYFLAGAAVTGGTITVNGCGTSSLQGDVKFAEVLEKMGAKVTWSENSVTVTGPPQDSSGQKVLQGIDVNMNKMPDVAMTLAVVALFANGQTTIRDVASWRVKETERMIAICTELRKLGATVEEGPDYCVITPPEKLNVTAIDTYDDHRMAMAFSLAACGDVPVTIKDPGCTRKTFPDYFEVLERFTRH
B2: G4: soybean EPSPS mutant, SEQ ID NO: 10, mutation S265(247)G (protein)
chain: MAAAEKPSTAPEIVLEPIKDISGTITLPGSKSLSNRILLLAALSEGTTVVDNLLYSEDIHYMLGALRTLGLRVEDDQTTKQAIVEGCGGLFPTIKESKDEINLFLGNAGTAMRPLTAAVVAAGGNASYVLDGVPRMRERPIGDLVAGLKQLGADVDCFLGTNCPPVRVNGKGGLPGGKVKLSGSVSSQYLTALLMAAPLALGDVEIEIVDKLISVPYVEMTLKLMERFGVSVEHSGDWDKFLVHGGQKYKSPGNAFVEGDASSAGYFLAGAAVTGGTITVNGCGTSSLQGDVKFAEVLEKMGAKVTWSENSVTVTGPPQDSSGQKVLQGIDVNMNKMPDVAMTLAVVALFANGQTTIRDVASWRVKETERMIAICTELRKLGATVEEGPDYCVITPPEKLNVTAIDTYDDHRMAMAFSLAACGDVPVTIKDPGCTRKTFPDYFEVLERFTRH

Test system: transgenic rice plants
Test: glyphosate resistance of the EPSPS mutant in transgenic rice plants sprayed with Roundup 41% ammonium glyphosate
Format: in vivo, rice (Nipponbare)
Excerpt: A method for detecting the glyphosate resistance of G1 (SEQ ID NO: 4) provided in Example 1, G3 (SEQ ID NO: 8) provided in Example 2, G4 (SEQ ID NO: 10) provided in Example 3, the soybean EPSPS mutant G5 (SEQ ID NO: 12) provided in Example 4, T1 (SEQ ID NO: 16) provided in Example 5, T3 (SEQ ID NO: 20) provided in Example 6, T4 (SEQ ID NO: 22) provided in Example 7, T5 (SEQ ID NO: 24) provided in Example 8, the wheat EPSPS mutant T6 (SEQ ID NO: 26) provided in Example 9, R1 (SEQ ID NO: 30) provided in Example 10, R3 (SEQ ID NO: 34) provided in Example 11, R4 (SEQ ID NO: 36) provided in Example 12, R5 (SEQ ID NO: 38) provided in Example 13, and the rice EPSPS mutant R6 (SEQ ID NO: 40) provided in Example 14 in the transgenic rice is as follows:
The plasmids (containing the EPSPS mutation gene) of the monoclonal resistant bacteria of pADV5-EPSPS in Examples 1-7 were extracted by a conventional method, followed by double enzyme digestion by Pac1 and BstEII, the small fragments were collected, and then the small fragments were ligated by using T4 DNA ligase, to the pGVP1 vectors that had undergone the same double enzyme digestion, to obtain a pGVP1-EPSPS vector having a structure as shown in FIG. 23.
EHA105 (Agrobacterium tumefaciens) competent cells were transformed by the pGVP1-EPSPS vector, and single colonies were picked up to perform bacterial colony PCR detection to identify positive strains; then the positive strains were inoculated into 1 mL of YEP culture medium containing 50 μg·mL^−1 kanamycin and 50 μg·mL^−1 rifampin to propagate, and then preserved at −80° C., or used for subsequent experiment.
400 μl of bacterium containing the target gene vector preserved at −80° C. was added to a culture dish of solid culture media containing YEP+50 μg/mL rifampin+50 μg/mL kanamycin, and cultured in the dark at 28° C. for 24 hours, then this bacterium was added to an infection culture medium, and this bacterial solution was adjusted to OD=0.2 as an infection liquid.
Sterilization and pre-culturing: mature rice (Nipponbare) seeds were manually shelled, and full seeds without bacterial plaque were selected, and sterilized according to following steps: putting the seeds into a 50 ml sterile centrifuge tube, adding 70% alcohol for disinfection for 30 seconds, pouring out the alcohol, and cleaning the seeds once with sterile water; adding 10-20 ml of 2.6% sodium hypochlorite solution for soaking and sterilizing for 20 minutes, pouring out the sodium hypochlorite solution, and soaking and cleaning the seeds with sterile water for 6-7 times, 3 minutes each time.
Induction and subculturing: the seeds were put on sterile filter paper for drying, and mature embryos were put in an induction culture medium with 12 embryos in each dish; the culture dishes were sealed with a sealing film after the operation was finished, the mature embryos were cultured in the dark at 30° C. for 21-28 days, calluses were transferred into a fresh culture medium, and continuously cultured for about 7-14 days, and spherical calluses with a size of 1-2 mm were taken as infection receptors.
the calluses were inoculated into a centrifuge tube or a culture cup, the prepared Agrobacterium tumefaciens suspension liquid was added for infection for 10 minutes, wherein the calluses were shaken several times; the bacterial solution was poured out, the calluses were taken out, and placed on sterile filter paper to suck out the surface bacterial solution (about 30 minutes); and the calluses were put on sterile filter paper in a culture dish, and cultured in the dark at 25° C. for 2-3 days.
Recovery culturing: the calluses having undergone co-culturing were inoculated in a recovery culture medium, and cultured in the dark at 30° C. for 5-7 days. First round of screening: the calluses were transferred to screening culture media 1 (S1) and cultured in the dark at 30° C. for 14 days. […]

[1] = 1× dosage 1060 g/hectare glyphosate sprayed, recorded on 10th day
[2] = 2× dosage 2120 g/hectare sprayed to plants surviving 1×, recorded 10 days later
[3] = 5× dosage 5300 g/hectare sprayed to plants surviving 2×, recorded 10 days later
[4] = 20× dosage 21200 g/hectare sprayed to plants surviving 5×, recorded 10 days later

Molecule	%++&+++ (percentage of plant having medium and high glyphosate resistance to the total number of plants observed) [1] [%]	number of plants denoted by + (low glyphosate resistance) [1]	number of plants denoted by ++ (medium glyphosate resistance) [1]	number of plants denoted by +++ (high glyphosate resistance) [1]	number of plants denoted by − (no glyphosate resistance) [1]	glyphosate resistance / survival of the rice transformed by the EPSPS, in words (1× glyphosate dosage)	%++&+++ (percentage of plant having medium and high glyphosate resistance to the total number of plants observed) [2] [%]	number of plants denoted by + (low glyphosate resistance) [2]	number of plants denoted by ++ (medium glyphosate resistance) [2]	number of plants denoted by +++ (high glyphosate resistance) [2]	number of plants denoted by − (no glyphosate resistance) [2]	glyphosate resistance / survival of the rice transformed by the EPSPS, in words (2× glyphosate dosage)	&++&+++ (percentage of plant having medium and high glyphosate resistance to the total number of plants observed) [3] [%]	number of plants denoted by + (low glyphosate resistance) [3]	number of plants denoted by ++ (medium glyphosate resistance) [3]	number of plants denoted by +++ (high glyphosate resistance) [3]	number of plants denoted by − (no glyphosate resistance) [3]	glyphosate resistance / survival of the rice transformed by the EPSPS, in words (5× glyphosate dosage)	&++&+++ (percentage of plant having medium and high glyphosate resistance to the total number of plants observed) [4] [%]	number of plants denoted by + (low glyphosate resistance) [4]	also measured
B1	57.9	25	37	7	7	had certain resistance to glyphosate	0.0	66	0	0	10	some of the rice seedlings containing the soybean EPSPS mutants G3 and G5 still survived	0.0	46	0	0	30	some of the rice seedlings containing the soybean EPSPS mutants G3 and G5 still survived	0.0	8	number of plants denoted by ++ (medium glyphosate resistance) [4]: 0; number of plants denoted by +++ (high glyphosate resistance) [4]: 0; number of plants denoted by − (no glyphosate resistance) [4]: 68; glyphosate resistance / survival of the rice transformed by the EPSPS, in words (20× glyphosate dosage): some of the rice seedlings containing the soybean EPSPS mutants G3 and G5 still survived
B2	26.5	23	9	4	13	obviously superior to that of the rice seedlings transformed by G0	2.0	25	01	0	25	some of the transgenic rice seedlings transformed by G4 still survived	0.0	7	0	0	44	some of the transgenic rice seedlings transformed by G4 still survived	0.0	0	number of plants denoted by ++ (medium glyphosate resistance) [4]: 0; number of plants denoted by +++ (high glyphosate resistance) [4]: 0; number of plants denoted by − (no glyphosate resistance) [4]: 51
